Laboratory results reported in article PMC314469, “Protein Interaction Networks by Proteome Peptide Scanning” (PLoS Biology, 2004).

T1: amphyphisin SH3 (AMPH_HUMAN), P49418
T1 chain: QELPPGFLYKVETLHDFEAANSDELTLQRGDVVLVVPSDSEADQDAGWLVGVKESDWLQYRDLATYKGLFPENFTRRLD


Experiments:
[1] = target: T1, amphyphisin SH3 (AMPH_HUMAN), P49418; test: SPOT array
[2] = target: endophilin SH3 (SH3G2_HUMAN), Q99962; test: SPOT array

Binder | normalised SPOT signal, Boehringer light units (BLU); mean over the file's lines of this peptide [1] | normalised SPOT signal, Boehringer light units (BLU); mean over the file's lines of this peptide [2]
LSPRPEKPPEEPGQ [O14687 279-293] | 46.1 | 39.8
APQPPPRPPSPRYE [Q9Y566 1372-1386] | 1320 | 14500
APRAPRRPRSPPSS [P27815 35-48] | 92.3 | 257
LQRQLKRPRPVILD [Q9H3P5 284-297] | 41.9 | 194
LRPPPMRPVRPVVQ [O43295 603-616] | 7210 | 16200
LSSPLRRPWDQAQH [Q9P2W0 105-118] | 100 | 280
LTLLFKRPFGTSDP [P09172 129-142] | 41 | 44.1
LRQPLRRPFRPNGL [Q16753 167-180] | 1690 | 489
LTSGPARPWKSVAL [Q01113 359-372] | 142 | 428
LSFHPKRPWILTSL [P53621 15-28] | 23.4 | 121
LRGKFKRPTLRRVR [P19429 134-147] | 23.3 | 38
LQSDPPRPHRILQA [Q06481 479-492] | 170 | 184
LQGIFTRPSKLTRQ [O43611 94-107] | 324 | 210
LTIELRRPENEFWV [Q9NVH6 359-372] | 60 | 52.4
LSLLLKRPWDPAVG [Q9NWE5 158-171] | 30 | 38.6
LSERPPRPPPPPPP [Q96Q04 431-445] | 341 | 944
LSKWLKRPGALEKQ [Q96S42 159-172] | 21.1 | 67.5
LRPVPGKPPGVDPL [Q04727 335-349] | 66.4 | 32.5
LRAMPSRPPRLLAT [Q9UNU2 285-298] | 5160 | 7160
LQPRPRRPREAPDT [Q15653 147-160] | 412 | 222
LRPVPRRPSTWSRR [Q9NWJ0 49-62] | 2420 | 4830

Binder | normalised SPOT signal, Boehringer light units (BLU); mean over the file's lines of this peptide [1] | normalised SPOT signal, Boehringer light units (BLU); mean over the file's lines of this peptide [2]
LSQPPRRPWGNLTA [P22105 891-904] | 60.8 | 154
APQSPRRPPHPLPP [P12270 2055-2069] | 339 | 2810
LRRHPSRPMRQSRR [Q9NYU0 896-909] | 3450 | 412
LRATLKRPEVIATS [Q96JV6 461-474] | 37.9 | 97.1
LSDFPKKPPQPELG [Q96QH2 325-339] | 64.9 | 95.7
LRKRPLKPPAKKIM [O14789 574-588] | 91.3 | 6220
LSGGLKRPSTRTPN [Q9BQL3 78-91] | 22.4 | 27
LQLGPSRPPTGEAL [Q9NXY3 388-402] | 38 | 62.4
LTLKPIRPRKYPNR [Q06889 251-264] | 482 | 102
LQRRLKRPETPTHD [Q9NVU6 531-544] | 28.9 | 41.8
LRRLLKRPELEEIF [Q96FL6 71-84] | 35.9 | 59.1
LREDFVRPLREGIL [Q9P2E3 383-396] | 5300 | 208
LQKQPRRPRRWVTV [O95125 124-137] | 2180 | 220
LQPRPRRPREAADT [Q96LS1 115-128] | 371 | 329
LSNSLTRPQKLSPV [O60673 804-817] | 120 | 106
LSADPERPGRFRLE [Q9H0F6 46-59] | 37.1 | 121
LRWGFSRPRKDKGL [Q9P2P9 1564-1577] | 259 | 102
APRRPRRPRRPGPS [Q96QG0 341-354] | 2420 | 1500
LTHVLSRPRRGSSG [Q9H6B9 44-57] | 2960 | 170
LRGKFKRPPLRRVR [P48788 102-115] | 35.8 | 50.6
LTKVFFRPGKFAEF [Q9UM54 753-766] | 132 | 199
